We go through six molecules from patent US20250122303A1 (HUMMINGBIRD BIOSCIENCE PTE, published 2025).

What is called Kd is the concentration at which binding is half-saturated. A low value points to higher affinity. One may read the kon as the second-order rate constant of association. Read a low kon as slow association. What is called koff is the rate constant with which the complex falls apart. Low values mean a long-lived complex, high ones a short-lived complex.

The target of assay [1] is T1, human HER3 expressed on cells (HEK293 HER3 O/E cells) (human, UniProt P21860 20-1342).
T1 construct: Also used here for HER3 on U2OS cells of the PathHunter kit and on cancer cell lines; also called HEK293 cells transfected with vector encoding human HER3; human HER3-expressing cells
In words: flow cytometry, HEK293 cells overexpressing human HER3, 20 ug/ml antibody, FITC anti-Fc secondary; same antibody on WT HEK293: 17.31. As for the experimental part: (§1) The cells were washed thrice with FACS buffer (PBS with 5 mM EDTA and 0.5% BSA) and resuspended in FITC-conjugated anti-FC antibody (Invitrogen, USA) for 40 min at 2-8° C. Cells were washed again and resuspended in 200 μL of FACS flow buffer (PBS with 5 mM EDTA) for flow cytometric analysis using MACSQuant 10 (Miltenyi Biotec, Germany). After acquisition, all raw data were analyzed using Flowlogic software. Cells were gated using forward and side scatter profile percentage of positive cells was determined for native and overexpressing cell populations.

The target of a further assay is T2, mouse HER3 (mouse, UniProt Q61526 20-641).
T2 construct: also called mouse homologue of HER3 (Sino Biological Inc.); M. musculus HER3
T2 sequence (Q61526 20-641 limits assumed): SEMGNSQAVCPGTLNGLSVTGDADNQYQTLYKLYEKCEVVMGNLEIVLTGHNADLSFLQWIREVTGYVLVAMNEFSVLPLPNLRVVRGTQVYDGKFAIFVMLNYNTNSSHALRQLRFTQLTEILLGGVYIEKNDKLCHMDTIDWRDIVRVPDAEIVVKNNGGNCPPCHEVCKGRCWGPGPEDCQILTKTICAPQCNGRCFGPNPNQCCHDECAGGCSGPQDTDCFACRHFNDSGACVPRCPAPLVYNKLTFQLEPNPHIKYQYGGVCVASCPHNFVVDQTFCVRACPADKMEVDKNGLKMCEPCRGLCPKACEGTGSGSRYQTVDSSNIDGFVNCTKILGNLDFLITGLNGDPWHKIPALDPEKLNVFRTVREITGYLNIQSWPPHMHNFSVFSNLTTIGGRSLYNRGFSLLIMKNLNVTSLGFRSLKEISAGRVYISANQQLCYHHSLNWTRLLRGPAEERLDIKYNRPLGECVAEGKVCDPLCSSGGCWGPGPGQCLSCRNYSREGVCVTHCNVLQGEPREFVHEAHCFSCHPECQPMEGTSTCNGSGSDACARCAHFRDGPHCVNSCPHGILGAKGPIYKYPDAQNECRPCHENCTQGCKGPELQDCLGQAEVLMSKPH
In words: ELISA, plate coated with 0.1 ug/ml mouse HER3, antibody titrated, absorbance 450 nm. As for the experimental part:
(§2) ELISAs were used to determine the binding specificity of the antibodies. The antibodies were analysed for binding to human HER3 polypeptide, as well as respective mouse, rat and monkey homologues of HER3 (Sino Biological Inc., China). The antibodies were also analysed for their ability to bind to human EGFR and human HER2 (Sino Biological Inc., China).
(§3) ELISAs were carried out according to standard protocols. Briefly, 96-well plates (Nunc, Denmark) were coated with 0.1 μg/ml of target polypeptide in phosphate-buffered saline (PBS) for 16 h at 4° C. After blocking for 1 h with 1% BSA in Tris buffer saline (TBS) at room temperature, the anti-HER3 antibody was serially diluted with the highest concentration being 10 μg/ml, and added to the plate. Post 1 h incubation at room temperature, plates were washed three times with TBS containing 0.05% Tween 20 (TBS-T) and were then incubated with a HRP-conjugated […] antibody (Life Technologies, Inc., USA) for 1 h at room temperature. After washing, plates were developed with colorimetric detection substrate 3,3′,5,5′-tetramethylbenzidine (Turbo-TMB; Pierce, USA) for 10 min. The reaction was stopped with 2M H₂SO₄, and OD was measured at 450 nm.
In general terms: ELISA stands for enzyme-linked immunosorbent assay.

The target in assay [2] is T3, His-tagged human HER3 (human, UniProt P21860 20-643).
T3 construct: Antigen of the BLI experiments and of the HER2-Fc dimerisation ELISA; also called HER3 His; not shown: His tag
In words: BLI (Octet QK384), antibody on anti-human IgG capture tips, His-tagged human HER3 in solution, global one-site fit. How it is done: (§4) The anti-HER3 antibody clones in IgG1 format were analysed for binding affinity to human HER3. Bio-Layer Interferometry (BLI) experiments were performed using the Octet QK384 system (ForteBio). anti-Human IgG Capture (AHC) Octet sensor tips (Pall ForteBio, USA) were used to anti-HER3 antibodies (25 nM). All measurements were performed at 25° C. with agitation at 1000 rpm. […] Sensograms were referenced for buffer effects and then fitted using the Octet QK384 user software (Pall ForteBio, USA). Kinetic responses were subjected to a global fitting using a one site binding model to obtain values for association (Kₒₙ), dissociation (Koff) rate constants and the equilibrium dissociation constant (KD). Only curves that could be reliably fitted with the software (R²>0.90) were included in the analysis.
On the technique in general: BLI is a label-free optical method that tracks binding on a fibre tip over time.

The target of another assay is T4, human EGFR (human, UniProt P00533 25-645).
T4 construct: also called human HER1 (EGFR) (Sino Biological Inc.)
In words: ELISA, plate coated with 0.1 ug/ml human EGFR, antibody titrated, absorbance 450 nm. How it is done: as §2, §3

Assay [3] has as its target T1, human HER3 expressed on cells (HEK293 …). Nature of the assay: flow cytometry, HEK293 cells overexpressing human HER3, 20 ug/ml antibody, FITC anti-Fc secondary; same antibody on WT HEK293: 17.31. How it is done: as §1
This is another data set of the same source. (Flow cytometry measures light scatter and fluorescence of single cells or particles in a stream.)

The next assay concerns the target T5, human HER2 (human, UniProt P04626 23-652).
T5 construct: also called human HER2 (Sino Biological Inc.)
In words: ELISA, plate coated with 0.1 ug/ml human HER2, antibody titrated, absorbance 450 nm. How it is done: as §2, §3

The next assay deals with T6, rat HER3 (rat, UniProt Q62799 20-641, limits assumed).
T6 construct: also called rat homologue of HER3 (Sino Biological Inc.); R. norvegicus HER3
T6 sequence (Q62799 20-641 limits assumed): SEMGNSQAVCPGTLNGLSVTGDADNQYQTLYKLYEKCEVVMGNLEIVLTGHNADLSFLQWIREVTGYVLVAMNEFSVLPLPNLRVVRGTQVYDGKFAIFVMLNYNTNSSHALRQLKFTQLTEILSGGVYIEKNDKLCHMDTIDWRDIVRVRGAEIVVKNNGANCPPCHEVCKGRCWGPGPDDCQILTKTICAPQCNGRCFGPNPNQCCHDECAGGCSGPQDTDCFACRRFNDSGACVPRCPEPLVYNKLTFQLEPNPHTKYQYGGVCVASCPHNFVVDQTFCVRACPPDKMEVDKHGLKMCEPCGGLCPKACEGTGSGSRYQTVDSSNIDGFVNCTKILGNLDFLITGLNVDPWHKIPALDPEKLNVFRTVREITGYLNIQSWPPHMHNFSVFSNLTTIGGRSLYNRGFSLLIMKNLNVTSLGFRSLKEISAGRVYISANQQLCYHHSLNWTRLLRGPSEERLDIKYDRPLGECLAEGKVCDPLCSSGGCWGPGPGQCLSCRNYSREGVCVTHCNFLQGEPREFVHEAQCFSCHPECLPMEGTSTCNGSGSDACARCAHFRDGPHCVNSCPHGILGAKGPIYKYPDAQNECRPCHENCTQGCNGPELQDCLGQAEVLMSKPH
Nature of the assay: ELISA, plate coated with 0.1 ug/ml rat HER3, antibody titrated, absorbance 450 nm. As for the experimental part:
as §2, §3

Assay [4] has as its target T3, His-tagged human HER3. In words: BLI (Octet QK384), antibody on anti-human IgG capture tips, His-tagged human HER3 in solution, global 1:1 fit, R^2 = 0.9946, kon Error 5.99E+03; Response 0.119 / 0.2877 / 0.4777 / 0.6639 at 35 / 69 / 139 / 278 nM. How it is done: as §4
In assay [5] the target is T3, His-tagged human HER3. Nature of the assay: BLI (Octet QK384), antibody on anti-human IgG capture tips, His-tagged human HER3 35-278 nM, global 1:1 fit. As for the experimental part: as §4
For assay [6], the target named is T3, His-tagged human HER3. Nature of the assay: BLI (Octet QK384), antibody on anti-human IgG capture tips, His-tagged human HER3 35-278 nM, global 1:1 fit; kdis Error 1.16E-04. How it is done: as §4
Assay [7] has as its target T3, His-tagged human HER3. In words: BLI (Octet QK384), antibody on anti-human IgG capture tips, His-tagged human HER3 in solution, global 1:1 fit, R^2 = 0.9957, kon Error 3.54E+03; Response 0.0338 / 0.0911 / 0.1967 / 0.3885 at 35 / 69 / 139 / 278 nM. As for the experimental part: as §4
Assay [8] concerns the target T3, His-tagged human HER3. In words: BLI (Octet QK384), antibody on anti-human IgG capture tips, His-tagged human HER3 in solution, global 1:1 fit, R^2 = 0.9951, kon Error 5.36E+03; Response 0.0037 / 0.1082 / 0.2868 / 0.3903 at 35 / 69 / 139 / 278 nM. How it is done:
as §4

The target in assay [9] is T3, His-tagged human HER3. In words: BLI (Octet QK384), antibody on anti-human IgG capture tips, His-tagged human HER3 35-278 nM, global 1:1 fit; kdis Error 1.00E-04. How it is done:
as §4

The target in assay [10] is T3, His-tagged human HER3. In words: BLI (Octet QK384), antibody on anti-human IgG capture tips, His-tagged human HER3 in solution, global 1:1 fit, R^2 = 0.9954, kon Error 4.57E+03; Response 0.0786 / 0.1929 / 0.3283 / 0.5147 at 35 / 69 / 139 / 278 nM. As for the experimental part:
as §4

The target in assay [11] is T3, His-tagged human HER3. Nature of the assay: BLI (Octet QK384), antibody on anti-human IgG capture tips, His-tagged human HER3 in solution, global 1:1 fit, R^2 = 0.9915, kon Error 7.36E+03; Response 0.114 / 0.2569 / 0.4134 / 0.5768 at 35 / 69 / 139 / 278 nM. How it is done:
as §4

Where two headings read alike, the source gives them in different places. A value given as a limit tells only on which side of the number the result lay.

B1: anti-HER3 clone 4-35-B2 IgG1 (antibody, V domains shown)
VH: EIQLQQSGPELVKPGASVKVSCKASGYSFTDYNMYWVKQSHGKSLEWIGHINPYNGGTTYNQKFKGRATLTVDKSSSTAFMHLNSLTSEDSAVYFCVSLRWGAMDYWGQGTSVTVSS
VL: QIVLTQSPALMSASPGEKVTMTCSASSSVSYMYWYQQKPRSSPKPWIYLTSNLASGVPARFSGSGSGTSYSLTISSMEAEDAATYYCQQWNSNPYTFGGGTKLEIKR
notes: Human-mouse chimeric IgG1/kappa
On to B1, for which the “% Parent (HE3 positive)” value in [1] and in assay [3] was 43.2% throughout. The binding result in the assay with mouse HER3, with human EGFR, with human HER2 and in the assay with rat HER3 was “binds” throughout. The molecule further displayed a Kd in the assay with His-tagged human HER3 [2] of 80.9 nM.

B2: anti-HER3 clone 10D1_c93 IgG1 (antibody, V domains shown)
VH: DVQLQEWGAGLLKPSETLSLTCAVTGYSITSGYSWHWIRQFPGNGLEWIGSIHYSGGTNYNPSLKSRITISRDTSKNQFSLRLSSVTAADTAVYFCARMTTAPRYPFDYWGQGTLVTVSS
VL: DIVMTQSPSSLSASVGDRVTITCKASQIVGSNVAWYQQKPGKSPKPLIYSASYLYSDVPSRFSGSGSGTDFTMTISSLQPEDVATYYCQQYSSHPLTFGPGTKVEIKR
notes: Humanised 10D1 variant, IgG1/kappa
In the assay with His-tagged human HER3 [2], B2 showed a Kd of less than 0.001 nM. Further, the on-rate constant (kon) in the assay with His-tagged human HER3 [4] was found to be 188000 M⁻¹ s⁻¹. Besides, the dissociation rate constant (koff) with His-tagged human HER3 [5] was less than 1e-07 s⁻¹.

B3: anti-HER3 clone 10D1_c85o2 IgG1 (antibody, V domains shown)
VH: DVQLQEWGAGLLKPSETLSLTCAVTGYSITSGYSWHWIRQFPGKGLEWIGSIRYSGGTNYNPSLKSRITISRDTSKNQFSLKLGSVTAADTAVYFCARGTTAPRYPFDYWGQGTLVTVSS
VL: DIVMTQSPSSLSASVGDRVTITCKASQIVGSNVAWYQQKPGKSPKPLIYSARYQYSGVPFRFSGSGSGTDFTLTISSLQPEDVATYYCQQYSSHPLTFGPGTKVEIKR
notes: Humanised 10D1 variant, IgG1/kappa; also called 10D1_c8502
The molecule B3 registered a koff with His-tagged human HER3 [6] of 0.00168 s⁻¹. The Kd with His-tagged human HER3 [2] was found to be 17.3 nM. The molecule further returned an on-rate constant (kon) with His-tagged human HER3 [7] of 97400 M⁻¹ s⁻¹.

B4: anti-HER3 clone 10D1_c76 IgG1 (antibody, V domains shown)
VH: DVQLQEWGAGLLKPSETLSLTCAVTGYSITSGYSWHWIRQFPGNGLEWIGSIHYSGGTNYNPSLKSRITISRDTSKNQFSLKLSSVTAADTAVYFCARMTTAPRYPFDYWGQGTLVTVSS
VL: DIVMTQSPSSLSASGGDRVTITCKASQIVGYNVAWYQQKPGKSPKPLIYSASYLYSDVPSRFSASGSGTDFTLTISSLQPEDVAEYFCQQYSSHPLTFGPGTKVEIKR
notes: as for B2
In turn, B4 came in with a dissociation constant (Kd) with His-tagged human HER3 [2] of less than 0.001 nM. For the same molecule, in the assay with His-tagged human HER3 [8], the kon is 148000 M⁻¹ s⁻¹. For the same molecule, the off-rate (koff) with His-tagged human HER3 [5] was less than 1e-07 s⁻¹.

B5: anti-HER3 clone 10D1_11B IgG1 (antibody, V domains shown)
VH: DVQLQEWGAGLLKPSETLSLTCAVYGYSITSGYSWHWIRQPPGKGLEWIGSIHYSGGTNYNPSLKSRVTISRDTSKNQFSLKLSSVTAADTAVYYCARMTTAPRYPFDYWGQGTLVTVSS
VL: DIVMTQSPSSLSASVGDRVTITCKASQIVGSNVAWYQQKPGKSPKPLIYSASYGYSDVPSRFSGSGSGTDFTLTISSLRPEDVATYYCQQYSSHPLTFGPGTKVEIKR
notes: Humanised 10D1 variant, IgG1/kappa; also called v11b78L; C78 v11b
Molecule B5 had an off-rate (koff) in the assay with His-tagged human HER3 [9] of 6.01e-05 s⁻¹. The same molecule returned a dissociation constant (Kd) in the assay with His-tagged human HER3 [2] of 0.41 nM. Moreover, the kon in the assay with His-tagged human HER3 [10] amounted to 147000 M⁻¹ s⁻¹.

B6: anti-HER3 clone 10D1_c87 IgG1 (antibody, V domains shown)
VH: DVQLQEWGAGLLKPSETLSLTCAVTGYSITSGYSWHWIRQFPGNGLEWIGSIHYSGGTNYNPSLKSRITISRDTSKNQFSLRLSSVTAADTAVYFCARMTTAPRYPFDYWGQGTLVTVSS
VL: DIVMTQSPSSLSASVGDRVTITCKASQIVGSNVAWYQQMPGKSPEPLIYSASYLYSDVPSRFSGSGSGTDFTMTISSLQPEDVATYYCQQYSSHPLTFGPGTKVEIKR
notes: as for B2
The molecule B6 had a Kd with His-tagged human HER3 [2] of less than 0.001 nM. The molecule further showed a kon with His-tagged human HER3 [11] of 188000 M⁻¹ s⁻¹. Moreover, the off-rate (koff) in the assay with His-tagged human HER3 [5] is less than 1e-07 s⁻¹.
